US20210032313A1 (Daiichi Sankyo, published 2021)

Columns and labels:
human KLK14 = molecular target: T1, human KLK14 (human, UniProt Q9P0G3 25-251); test: cell-based or functional assay
T1 sequence: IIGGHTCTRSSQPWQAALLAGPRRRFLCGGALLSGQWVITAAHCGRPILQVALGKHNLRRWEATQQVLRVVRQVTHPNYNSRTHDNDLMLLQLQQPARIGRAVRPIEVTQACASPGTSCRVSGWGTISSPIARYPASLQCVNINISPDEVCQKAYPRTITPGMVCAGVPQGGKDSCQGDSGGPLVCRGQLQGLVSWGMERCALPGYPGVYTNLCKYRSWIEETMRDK

human KLK5 [1] = molecular target: T2, human KLK5 (human, UniProt Q9Y337 67-293); test: cell-based or functional assay
T2 sequence: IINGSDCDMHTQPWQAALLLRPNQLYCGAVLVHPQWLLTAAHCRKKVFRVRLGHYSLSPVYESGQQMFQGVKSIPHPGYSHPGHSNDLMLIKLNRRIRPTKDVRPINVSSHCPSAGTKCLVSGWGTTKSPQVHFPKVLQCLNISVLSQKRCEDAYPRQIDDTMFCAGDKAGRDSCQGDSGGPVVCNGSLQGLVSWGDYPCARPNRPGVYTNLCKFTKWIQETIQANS

KLK12 = molecular target: T3, KLK12 (human, UniProt Q9UKR0); test: fluorogenic peptide substrate cleavage, 1 µM inhibitor
T3 construct: commercial enzyme (R&D Systems, 3095-SE); 0.1 µg/mL in the assay; substrate Boc-Val-Pro-Arg-AMC 100 µM; also called Human KLK12; hKLK12
T3 sequence (protease, looked up): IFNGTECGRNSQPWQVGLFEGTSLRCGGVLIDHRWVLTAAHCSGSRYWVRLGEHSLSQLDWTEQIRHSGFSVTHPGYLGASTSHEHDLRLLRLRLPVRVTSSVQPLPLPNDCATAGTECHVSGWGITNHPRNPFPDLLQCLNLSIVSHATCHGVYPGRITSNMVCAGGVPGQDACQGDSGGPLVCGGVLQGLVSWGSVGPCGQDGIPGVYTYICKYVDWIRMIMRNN
Protocol: FIG. 3G includes graphs to evaluate the cross-reactivity of each inhibitory peptide with proteases, using the degradation of a peptide substrate as an index. For evaluating the Human KLK7 inhibitory activity, hKLK7 with a final concentration of 1 μg/mL and a substrate peptide Mca-Arg-Pro-Lys-Pro-Val-Glu-Nval-Trp-Arg-Lys (Dnp)-NH₂ (R&D Systems, Inc., ES002) with a final concentration of 20 μM were used. For evaluating the Human KLK8 inhibitory activity, hKLK8 (UniProt: 060259, prepared by the inventors) with a final concentration of 5 nM and a substrate peptide Boc-Val-Pro-Arg-AMC (R&D Systems, Inc., ES011) with a final concentration of 100 μM were used. For evaluating the Human KLK12 inhibitory activity, hKLK12 (R&D Systems, Inc., 3095-SE) with a final concentration of 0.1 μg/mL and a substrate peptide Boc-Val-Pro-Arg-AMC (R&D Systems, Inc., ES011) with a final concentration of 100 μM were used.
(§1) The specificities for other proteases were evaluated using the degradation of a substrate peptide as an index. As in the method described in (3-1), 25 μL each of a protease and a sample diluted with an assay buffer were mixed (to a final concentration of sample of 1 μM), followed by a reaction at 37° C. for 20 minutes. Thereafter, 50 μL of a substrate diluted with an assay buffer was added thereto, and the fluorescence signal was measured using Enspire (PerkinElmer). An assay buffer (50 mM Tris, 150 mM NaCl, pH 8.0) was used for the evaluation of the protease activity, and a PROTEOSAVE® SS96F black plate (Sumitomo Bakelite Co., Ltd.) was used for the reaction and the measurement. The combinations of the protease and the substrate used for the evaluation of the specificity were as follows.

KLK4 = molecular target: T4, KLK4 (human, UniProt Q9Y5K2); test: as above
T4 construct: commercial enzyme (R&D Systems, 1719-SE); 1 µg/mL in the assay; substrate Boc-Val-Pro-Arg-AMC 100 µM; also called Human KLK4; hKLK4
Protocol: FIG. 3F includes graphs to evaluate the cross-reactivity of each inhibitory peptide with proteases, using the degradation of a peptide substrate as an index. For evaluating the Human KLK1 inhibitory activity, hKLK1 (R&D Systems, Inc., 2337-SE) with a final concentration of 0.1 μg/mL and a substrate peptide Pro-Phe-Arg-MCA (PEPTIDE […], INC., 3096-v) with a final concentration of 100 μM were used. For evaluating the Human KLK2 inhibitory activity, hKLK2 (R&D Systems, Inc., 4104-SE) with a final concentration of 2 μg/mL and a substrate peptide Pro-Phe-Arg-MCA (PEPTIDE […], INC., 3096-v) with a final concentration of 100 μM were used. For evaluating the Human KLK4 inhibitory activity, hKLK4 (R&D Systems, Inc., 1719-SE) with a final concentration of 1 μg/mL and a substrate peptide Boc-Val-Pro-Arg-AMC (R&D Systems, Inc., ES011) with a final concentration of 100 μM were used.
as §1

human KLK5 [2] = molecular target: T2, human KLK5; test: SPR, BIAcore T200; biotinylated KLK5 captured on chip, peptide as analyte; single cycle kinetics, 1:1 model
Protocol: In order to measure the binding affinity of the KLK5 inhibitory peptides, surface plasmon resonance analysis was conducted using BIAcore T 200 (GE healthcare). A complementary strand of DNA of a streptavidin conjugate was captured by hybridization on Sensor Chip CAP (GE healthcare) on which single-stranded DNA immobilized. Next, KLK5 biotinylated using EZ-Link NHS-PEG4-Biotin (Thermo Fisher Scientific) was captured at a flow rate of 10 μL/min to immobilize about 10 RU. Thereafter, the KLK5 inhibitory peptide, serially diluted 2-fold with HBS-EP (0.625 to 10 nM), was added thereto as an analyte at a flow rate of 30 μL/min. In the BIAcore T 200 Evaluation software (version 2.0), kon and koff were calculated by analysis using Single cycle kinetics in a simple one-to-one Langmuir binding model. The dissociation constant KD was calculated as a ratio of koff/kₒₙ. Further, multiple KLK5 inhibitory peptides were measured by regenerating Sensor Chip CAP using a Regeneration buffer attached to a Biotin CAPture Kit (GE healthcare) and repeatedly capturing biotinylated KLK5.

mouse KLK14 = molecular target: T5, mouse KLK14 (mouse, UniProt Q8CGR5 24-250); test: cell-based or functional assay
T5 sequence: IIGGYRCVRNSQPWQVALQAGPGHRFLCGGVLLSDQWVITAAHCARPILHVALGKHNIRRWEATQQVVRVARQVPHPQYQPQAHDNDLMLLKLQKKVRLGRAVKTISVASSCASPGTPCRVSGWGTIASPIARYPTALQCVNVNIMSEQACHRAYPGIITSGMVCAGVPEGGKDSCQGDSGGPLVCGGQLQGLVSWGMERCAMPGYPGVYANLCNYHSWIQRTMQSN

mouse KLK7 = mouse KLK7 (mouse, UniProt Q91VE3 26-249); test: cell-based or functional assay
mouse KLK5 = molecular target: T6, mouse KLK5 (mouse); test: cell-based or functional assay
T6 chain: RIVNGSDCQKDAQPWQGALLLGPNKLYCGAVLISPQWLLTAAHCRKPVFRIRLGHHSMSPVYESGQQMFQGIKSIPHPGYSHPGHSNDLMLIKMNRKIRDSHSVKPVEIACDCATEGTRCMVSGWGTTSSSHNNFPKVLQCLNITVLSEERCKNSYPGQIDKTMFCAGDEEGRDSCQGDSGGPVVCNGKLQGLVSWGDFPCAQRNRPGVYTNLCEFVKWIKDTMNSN

human KLK7 = human KLK7 (human, UniProt P49862 30-253); test: cell-based or functional assay
human KLK7, sequence (P49862 30-253): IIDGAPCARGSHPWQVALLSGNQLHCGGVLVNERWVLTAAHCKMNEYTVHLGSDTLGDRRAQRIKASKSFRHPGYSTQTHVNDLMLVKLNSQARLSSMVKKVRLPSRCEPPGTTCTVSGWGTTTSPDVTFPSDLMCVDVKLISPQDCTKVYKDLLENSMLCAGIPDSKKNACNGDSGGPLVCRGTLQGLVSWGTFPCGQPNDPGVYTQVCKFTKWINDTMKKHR

T4 sequence (Q9Y5K2 31-254 limits assumed): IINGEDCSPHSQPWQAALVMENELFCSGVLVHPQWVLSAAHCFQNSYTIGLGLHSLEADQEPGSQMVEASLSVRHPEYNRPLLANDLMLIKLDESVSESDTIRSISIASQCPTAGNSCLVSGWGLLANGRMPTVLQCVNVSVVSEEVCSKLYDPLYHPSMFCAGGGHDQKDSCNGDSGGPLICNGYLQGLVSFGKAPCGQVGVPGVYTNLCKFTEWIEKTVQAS
mouse KLK7, sequence (Q91VE3 26-249): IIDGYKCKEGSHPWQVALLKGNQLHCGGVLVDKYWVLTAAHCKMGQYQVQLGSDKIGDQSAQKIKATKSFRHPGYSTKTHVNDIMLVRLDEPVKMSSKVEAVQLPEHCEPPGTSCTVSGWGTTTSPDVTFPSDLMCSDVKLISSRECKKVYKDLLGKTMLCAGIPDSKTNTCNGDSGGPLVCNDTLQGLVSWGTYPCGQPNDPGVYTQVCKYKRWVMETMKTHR

Binder	IC50(nM) for hKLK14 (human KLK14)	IC50(nM) for hKLK5 (human KLK5 [1])	binding result (KLK12)	binding result (KLK4)	Kd (human KLK5 [2])	koff (human KLK5 [2])	kon (human KLK5 [2])	IC50(nM) for mKLK14 (mouse KLK14)	IC50(nM) for mKLK7 (mouse KLK7)	IC50(nM) for mKLK5 (mouse KLK5)	IC50(nM) for hKLK7 (human KLK7)
KLK5 inhibitory peptide K50098 (SPINK2 mutant peptide made in E. coli) GPQFGLFSKYRTPNCTSQTLGSCSREYDPVCGSDMSTYANECTLCMKIREGGHNIKIIRNGPCGG	268 nM	8.3 nM	binds	binds	0.018 nM	1.8e-05 s⁻¹	1e+06 M⁻¹ s⁻¹	547 nM	> 1000 nM	14 nM	–
KLK5 inhibitory peptide K50016 (SPINK2 mutant peptide made in E. coli) GPQFGLFSKYRTPNCSQWQYSSCDRVYDPVCGSDMSTYANECTLCMKIREGGHNIKIIRNGPCGG	–	6.9 nM	–	binds	0.042 nM	0.00029 s⁻¹	7e+06 M⁻¹ s⁻¹	> 1000 nM	> 1000 nM	15 nM	–
KLK5 inhibitory peptide K50032 (SPINK2 mutant peptide made in E. coli) GPQFGLFSKYRTPNCLNWTDHQCERDYDPVCGSDMSTYANECTLCMKIREGGHNIKIIRNGPCGG	–	7.1 nM	binds	–	0.13 nM	0.00027 s⁻¹	2e+06 M⁻¹ s⁻¹	> 1000 nM	> 1000 nM	127 nM	–
KLK5/KLK7 inhibitory peptide K51028 (SPINK2 mutant peptide made in E. coli) GPQFGLFSKYRTPNCYQYRSKGCTHEYDPVCGSDMSTYANECTLCMKIREGGHNIKIIRNGPCGG	–	6.1 nM	–	–	0.014 nM	2e-05 s⁻¹	1.5e+06 M⁻¹ s⁻¹	> 1000 nM	77 nM	< 0.5 nM	249 nM
KLK5 inhibitory peptide K50055 (SPINK2 mutant peptide made in E. coli) GPQFGLFSKYRTPNCANTMKQDCTREYDPVCGSDMSTYANECTLCMKIREGGHNIKIIRNGPCGG	> 1000 nM	6.7 nM	binds	binds	0.019 nM	1.8e-05 s⁻¹	980000 M⁻¹ s⁻¹	> 1000 nM	> 1000 nM	< 0.5 nM	–
KLK5 inhibitory peptide K51090 (SPINK2 mutant peptide made in E. coli) GPQFGLFSKYRTPNCDEIGKYGCGRSYDPVCGSDMSTYANECTLCMKIREGGHNIKIIRNGPCGG	> 1000 nM	4.5 nM	–	binds	0.027 nM	5.7e-05 s⁻¹	2.1e+06 M⁻¹ s⁻¹	> 1000 nM	658 nM	2 nM	> 1000 nM
KLK5 inhibitory peptide K51072 (SPINK2 mutant peptide made in E. coli) GPQFGLFSKYRTPNCQEDMTEYCARDFDPVCGSDMSTYANECTLCMKIREGGHNIKIIRNGPCGG	434 nM	7 nM	binds	binds	0.026 nM	2.2e-05 s⁻¹	840000 M⁻¹ s⁻¹	> 1000 nM	512 nM	2 nM	–
